From patent US7238491, “Pregnane X receptor method” (SmithKline Beecham Corporation)

Assays:
mPXR1/hRXR heterodimer [1] = target: T1, mPXR1/hRXR heterodimer (Mus musculus / Homo sapiens, UniProt O54915;P19793 O54915:1-431,P19793:1-462); assay: competition; same profile as hPXR/RXR; little or no competition; details: tags: none; TNT rabbit reticulocyte lysate
Method: (§1) Band Shift Assays hPXR, mPXR1, and hRXR were synthesized in vitro using the TNT rabbit reticulocyte lysate coupled in vitro transcription/translation system (Promega) according to the manufacturer's instructions. Gel mobility shift assays (20 µl) contained 10 mM Tris (pH 8.0), 40 mM KCl, 0.05% NP-40, 6% glycerol, 1 mM DTT, 0.2 µg of poly(dI-dC) and 2.5 µl each of in vitro synthesized PXR and RXR proteins. Competitor oligonucleotides were included at a 10-fold or 50-fold excess. After a 10 min incubation on ice, 10 ng of [^32P]-labeled oligonucleotide was added and the incubation continued for an additional 10 min. DNA-protein complexes were resolved on a 4% polyacrylamide gel in 0.5×TBE (1×TBE=90 mM Tris, 90 mM boric acid, 2 mM EDTA). Gels were dried and subjected to autoradiography at –70° C. The following oligonucleotides were used as either radiolabeled probes or competitors (sense strand is shown):
(§2) In order to determine whether hPXR interacted directly with the CYP3A4 IR6 response element, band shift assays were performed.

[2] = target: T2, hPXR/hRXR heterodimer (RXR isoform not stated) (Homo sapiens, UniProt O75469;P19793 O75469:1-434,P19793:1-462); assay: competition; little or no competition at 10- or 50-fold excess in EMSA; details: tags: none; TNT rabbit reticulocyte lysate
Method: as §1, §2

[3] = target: T2, hPXR/hRXR heterodimer (RXR isoform not …); assay: competition; efficient competitor of IR6 probe at 10- or 50-fold excess in EMSA; details: tags: none; TNT rabbit reticulocyte lysate
Method: as §1, §2

mPXR1/hRXR heterodimer [4] = target: T1, mPXR1/hRXR heterodimer; assay: competition; same profile as hPXR/RXR; competes with IR6 probe; details: tags: none; TNT rabbit reticulocyte lysate
Method: as §1, §2

hRXR = hRXR (Homo sapiens, UniProt P19793 P19793:1-462); assay: EMSA; RXR alone without PXR; details: tags: none; TNT rabbit reticulocyte lysate; label: 32P (probe)
Method: as §1, §2

[5] = target: T2, hPXR/hRXR heterodimer (RXR isoform not …); assay: EMSA; 10 mM Tris pH 8.0, 40 mM KCl, 0.05% NP-40, 6% glycerol, 1 mM DTT, poly(dI-dC), on ice; self-competed by unlabeled IR6; details: tags: none; TNT rabbit reticulocyte lysate; label: 32P (probe)
Method: as §1, §2

mPXR1/hRXR heterodimer [6] = target: T1, mPXR1/hRXR heterodimer; assay: EMSA; same binding profile as hPXR/RXR; details: tags: none; TNT rabbit reticulocyte lysate; label: 32P (probe)
Method: as §1, §2

T2 sequence (O75469 whole entry, chain 1 of 2, canonical isoform): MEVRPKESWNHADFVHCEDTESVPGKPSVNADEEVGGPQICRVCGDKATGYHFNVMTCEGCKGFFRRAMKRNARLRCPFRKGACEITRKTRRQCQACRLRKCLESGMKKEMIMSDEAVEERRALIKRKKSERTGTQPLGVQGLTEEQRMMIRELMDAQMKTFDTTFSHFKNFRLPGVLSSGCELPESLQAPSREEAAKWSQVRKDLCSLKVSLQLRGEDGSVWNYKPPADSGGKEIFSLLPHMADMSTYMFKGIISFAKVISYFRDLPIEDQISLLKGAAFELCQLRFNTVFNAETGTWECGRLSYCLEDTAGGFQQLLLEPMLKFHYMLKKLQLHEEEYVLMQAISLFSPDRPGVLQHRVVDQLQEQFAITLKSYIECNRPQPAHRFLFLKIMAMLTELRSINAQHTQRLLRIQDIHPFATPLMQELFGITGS
T2 sequence (P19793 whole entry, chain 2 of 2, canonical isoform): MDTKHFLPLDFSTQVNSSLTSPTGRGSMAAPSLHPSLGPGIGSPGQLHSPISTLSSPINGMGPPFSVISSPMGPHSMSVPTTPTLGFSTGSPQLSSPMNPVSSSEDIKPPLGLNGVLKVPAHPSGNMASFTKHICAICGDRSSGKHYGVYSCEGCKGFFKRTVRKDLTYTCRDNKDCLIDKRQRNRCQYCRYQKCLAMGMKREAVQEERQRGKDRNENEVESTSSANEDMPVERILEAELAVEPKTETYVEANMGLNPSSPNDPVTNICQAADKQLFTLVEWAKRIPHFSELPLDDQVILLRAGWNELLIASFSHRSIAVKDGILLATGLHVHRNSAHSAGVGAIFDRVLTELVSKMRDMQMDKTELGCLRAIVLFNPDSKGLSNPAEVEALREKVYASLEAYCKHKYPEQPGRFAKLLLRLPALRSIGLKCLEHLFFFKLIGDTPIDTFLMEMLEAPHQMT
T1 sequence (O54915 whole entry, chain 1 of 2): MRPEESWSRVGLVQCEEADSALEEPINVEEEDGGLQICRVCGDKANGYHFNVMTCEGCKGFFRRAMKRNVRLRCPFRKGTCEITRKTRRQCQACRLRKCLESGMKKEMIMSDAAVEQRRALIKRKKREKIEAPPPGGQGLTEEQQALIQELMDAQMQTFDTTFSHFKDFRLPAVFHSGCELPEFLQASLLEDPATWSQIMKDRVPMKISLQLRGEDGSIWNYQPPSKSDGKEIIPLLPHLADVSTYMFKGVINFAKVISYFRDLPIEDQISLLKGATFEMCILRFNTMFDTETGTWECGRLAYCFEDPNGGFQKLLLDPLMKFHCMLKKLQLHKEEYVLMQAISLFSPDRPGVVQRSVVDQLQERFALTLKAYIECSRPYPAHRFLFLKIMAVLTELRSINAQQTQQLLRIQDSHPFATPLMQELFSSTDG
T1 sequence (P19793 whole entry, chain 2 of 2): as the sequence (P19793 whole entry, chain 2 of 2, canonical isoform) above
hRXR, sequence (P19793 whole entry, one chain of several): as the sequence (P19793 whole entry, chain 2 of 2, canonical isoform) above

B1: CYP3A4 IR6 m1 (dsDNA)
DNA 1: GATCAATATGTTCTCAAAGGAGAACAGTG
DNA 2: CACTGTTCTCCTTTGAGAACATATTGATC
- binding result (mPXR1/hRXR heterodimer [1]): no binding
- binding result [2]: no binding

B2: CYP3A1 DR3 PXRE (dsDNA)
DNA 1: GATGCAGACAGTTCATGAAGTTCATCTAGATC
DNA 2: GATCTAGATGAACTTCATGAACTGTCTGCATC
- binding result [3]: binds
- binding result (mPXR1/hRXR heterodimer [4]): binds

B3: CYP3A4 IR6 m2 (dsDNA)
DNA 1: GATCAATAACAACTCAAAGGAGGTCAGTG
DNA 2: CACTGACCTCCTTTGAGTTGTTATTGATC
- binding result (mPXR1/hRXR heterodimer [1]): no binding
- binding result [2]: no binding

B4: CYP3A4 IR6 PXRE (dsDNA)
DNA 1: GATCAATATGAACTCAAAGGAGGTCAGTG
DNA 2: CACTGACCTCCTTTGAGTTCATATTGATC
- binding result (hRXR): no binding
- binding result [5]: binds
- binding result (mPXR1/hRXR heterodimer [6]): binds
